The supplement of paper PMC9112550, “Optimization of the antimicrobial peptide Bac7 by deep mutational scanning” (BMC Biology, 2022)

system: Escherichia coli TOP10; experiment: shrunken log2 fold change of peptide-encoding DNA abundance (4.5 h post-induction vs induction); higher = less antimicrobial activity (less host growth inhibition); details: time post-induction: 4.5 h; library: site-saturation at positions 5, 18, 19, 20
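Also: peptides expressed intracellularly from a pBAD plasmid library in pooled LB shake-flask culture, induced with 0.3% L-arabinose, DNA abundance read by NGS, three biological replicates, DESeq2 with apeglm shrinkage.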

Sequence | shrunken log2 fold change
RRIRKRPPRLPRPRPRPWCPPRP | 0.0532
RRIRMRPPRLPRPRPRPFQTPRP | 0.00707
RRIRNRPPRLPRPRPRPFMTPRP | -0.429
RRIRCRPPRLPRPRPRPNARPRP | 0.00577
RRIRVRPPRLPRPRPRPYIWPRP | -0.504
RRIRGRPPRLPRPRPRPQTCPRP | 0.403
RRIRWRPPRLPRPRPRPEGGPRP | 0.567
RRIRYRPPRLPRPRPRPHRTPRP | -0.527
RRIRCRPPRLPRPRPRPVSNPRP | 0.0201
RRIRVRPPRLPRPRPRPGFTPRP | -0.143
RRIRPRPPRLPRPRPRPNGAPRP | 0.327
RRIRERPPRLPRPRPRPKRQPRP | -0.0958
RRIRERPPRLPRPRPRPPELPRP | 0.102
RRIRCRPPRLPRPRPRPSPCPRP | -0.0417
RRIRGRPPRLPRPRPRPWDFPRP | 0.328
RRIRARPPRLPRPRPRPHHHPRP | -0.469
RRIRIRPPRLPRPRPRPTNFPRP | -0.535
RRIRDRPPRLPRPRPRPKGEPRP | 0.0647
RRIRDRPPRLPRPRPRPPNWPRP | 0.28
RRIRGRPPRLPRPRPRPRDAPRP | 1.21
RRIRTRPPRLPRPRPRPGVNPRP | -0.0412
RRIRCRPPRLPRPRPRPSWGPRP | 0.258

Sequence | shrunken log2 fold change
RRIRCRPPRLPRPRPRPVDNPRP | -0.00721
RRIRGRPPRLPRPRPRPHCRPRP | 0.376
RRIRCRPPRLPRPRPRPCIRPRP | -0.145
RRIRDRPPRLPRPRPRPAPRPRP | 1.07
RRIRSRPPRLPRPRPRPRVTPRP | 0.169
RRIRPRPPRLPRPRPRPWGSPRP | 0.216
RRIRFRPPRLPRPRPRPSNPPRP | -0.674
RRIRTRPPRLPRPRPRPPNWPRP | 0.845
RRIRQRPPRLPRPRPRPLARPRP | 0.26
RRIRNRPPRLPRPRPRPVDKPRP | 0.0215
RRIRQRPPRLPRPRPRPPKPPRP | -0.0724
RRIRQRPPRLPRPRPRPWGAPRP | 0.351
RRIRSRPPRLPRPRPRPQIQPRP | -0.118
RRIRNRPPRLPRPRPRPPCHPRP | -0.386
RRIRFRPPRLPRPRPRPAMLPRP | 0.0665
RRIRYRPPRLPRPRPRPYSPPRP | -0.0311
RRIRARPPRLPRPRPRPYARPRP | -0.118
RRIRYRPPRLPRPRPRPSWKPRP | -0.111
RRIRRRPPRLPRPRPRPWYTPRP | -0.637
RRIRERPPRLPRPRPRPIDEPRP | 0.0844
RRIRHRPPRLPRPRPRPMSIPRP | -0.0719
RRIRTRPPRLPRPRPRPAGEPRP | 0.323

Sequence | shrunken log2 fold change
RRIRMRPPRLPRPRPRPIILPRP | -0.0572
RRIRGRPPRLPRPRPRPKHSPRP | 0.209
RRIRDRPPRLPRPRPRPDYQPRP | 0.0708
RRIRWRPPRLPRPRPRPFSRPRP | -0.0399
RRIRYRPPRLPRPRPRPITYPRP | -0.0505
RRIRWRPPRLPRPRPRPPAHPRP | 0.498
RRIRARPPRLPRPRPRPIRSPRP | -0.129
RRIRKRPPRLPRPRPRPGMCPRP | 0.863
RRIRTRPPRLPRPRPRPIHEPRP | -0.259
RRIRQRPPRLPRPRPRPQWVPRP | 0.0126
RRIRQRPPRLPRPRPRPWGNPRP | 0.0303
RRIRPRPPRLPRPRPRPYLDPRP | -0.908
RRIRERPPRLPRPRPRPQMIPRP | 0.132
RRIRCRPPRLPRPRPRPFKTPRP | -0.478
RRIRIRPPRLPRPRPRPYYCPRP | -0.529
RRIRDRPPRLPRPRPRPCQVPRP | -0.0566
RRIRGRPPRLPRPRPRPFEVPRP | 0.121
RRIRERPPRLPRPRPRPLMWPRP | -0.101
RRIRRRPPRLPRPRPRPHPHPRP | 0.147
RRIRNRPPRLPRPRPRPDIEPRP | 0.0309
RRIRTRPPRLPRPRPRPHDGPRP | -0.0845
RRIRQRPPRLPRPRPRPFSKPRP | -0.218

Sequence | shrunken log2 fold change
RRIRRRPPRLPRPRPRPANEPRP | 0.245
RRIRMRPPRLPRPRPRPSPLPRP | 0.302
RRIRWRPPRLPRPRPRPSNCPRP | -0.0121
RRIRDRPPRLPRPRPRPRCLPRP | -0.0519
RRIRRRPPRLPRPRPRPTTFPRP | 3.05
RRIRHRPPRLPRPRPRPAGIPRP | -0.282
RRIRPRPPRLPRPRPRPYDQPRP | -0.15
RRIRYRPPRLPRPRPRPGVEPRP | 0.0346
RRIRLRPPRLPRPRPRPCQEPRP | -0.0108
RRIRRRPPRLPRPRPRPYHTPRP | -1.28
RRIRIRPPRLPRPRPRPTELPRP | -0.0944
RRIRSRPPRLPRPRPRPMPWPRP | -0.039
RRIRWRPPRLPRPRPRPIEFPRP | -0.0119
RRIRTRPPRLPRPRPRPAKNPRP | -0.0492
RRIRCRPPRLPRPRPRPICCPRP | -0.166
RRIRYRPPRLPRPRPRPATVPRP | -0.042
RRIRGRPPRLPRPRPRPDRPPRP | 0.376
RRIRIRPPRLPRPRPRPTGNPRP | -0.626
RRIRTRPPRLPRPRPRPDKCPRP | -0.229
RRIRSRPPRLPRPRPRPWVHPRP | -0.221
RRIRNRPPRLPRPRPRPNDDPRP | 0.0813
RRIRMRPPRLPRPRPRPIVEPRP | 0.456

Sequence | shrunken log2 fold change
RRIRSRPPRLPRPRPRPIRNPRP | -0.379
RRIRIRPPRLPRPRPRPLDFPRP | 0.0619
RRIRKRPPRLPRPRPRPWIYPRP | -0.00162
RRIRGRPPRLPRPRPRPWMPPRP | 0.105
RRIRPRPPRLPRPRPRPHMAPRP | -0.276
RRIRHRPPRLPRPRPRPHKYPRP | -0.242
RRIRLRPPRLPRPRPRPQDVPRP | -0.0265
RRIRERPPRLPRPRPRPTPGPRP | 0.337
RRIRKRPPRLPRPRPRPTVPPRP | 0.283
RRIRKRPPRLPRPRPRPISQPRP | 0.113
RRIRTRPPRLPRPRPRPWRWPRP | 0.554
RRIRDRPPRLPRPRPRPRHWPRP | 0.548
RRIRYRPPRLPRPRPRPENGPRP | 0.0143
RRIRDRPPRLPRPRPRPIFFPRP | 0.0831
RRIRIRPPRLPRPRPRPLHKPRP | -0.165
RRIRWRPPRLPRPRPRPWNRPRP | 0.066
RRIRARPPRLPRPRPRPCQQPRP | -0.00897
RRIRRRPPRLPRPRPRPLDPPRP | 0.5
RRIRGRPPRLPRPRPRPHSIPRP | 0.169
RRIRFRPPRLPRPRPRPPCQPRP | 3.46
RRIRVRPPRLPRPRPRPNTVPRP | -0.0689
